Laboratory results: patent publication US20190040127A1 (University of California, published 2019)
Numbering of substitutions follows the chain as printed. One block for each binder: values may come before it.

How the values were obtained:
[1] = target: T1, Epithelial Membrane Protein 2 (EMP2) (human, UniProt P54851 1-167); assay: flow cytometry on SUM149 cells, nonlinear regression (FIG. 4)
T1 construct: Endogenous EMP2 on SUM149 or MDA-MB-468 breast cancer cells
T1 sequence: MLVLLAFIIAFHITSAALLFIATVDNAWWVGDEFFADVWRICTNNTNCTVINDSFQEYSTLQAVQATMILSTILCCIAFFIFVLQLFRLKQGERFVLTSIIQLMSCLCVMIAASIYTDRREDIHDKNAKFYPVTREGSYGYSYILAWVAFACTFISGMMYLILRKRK
Experimental: (§1) A comparison of anti-EMP2 Variant 1 and PG-101 binding affinity for EMP2 was carried out. […] PG-101 and Variant 1 binding to EMP2 was determined using SUM149 and flow cytometry. Variant 1 retains binding to EMP2 with improved affinity. Flow cytometry was used to determine the ability of both antibodies to bind to EMP2 on SUM149 cells.

[2] = target: T1, Epithelial Membrane Protein 2 (EMP2); assay: flow cytometry on SUM149 cells (FIG. 4)
Experimental: as §1

[3] = target: T1, Epithelial Membrane Protein 2 (EMP2); assay: flow cytometry on MDA-MB-468 cells (FIG. 2)

Kd [1]: 2.6 µg/mL
B1: PG-101 Parental (antibody, human IgG1, kappa, V domains shown)
VH: QVQLVQSGGGVVQPGRSLRLSCAASGFTFSSYAMHWVRQAPGKGLEWVAVISYDGSNKYYADSVKGRFTISRDNSKNTLYLQMNSLRAEDTAVYYCARDRRGRKSAGIDYWGQGTLVTVSS
VL: DIQMTQSPSSLSASVGDRVTITCQASQDISNYLNWYQQKPGKAPKLLIYAASSLQSGVPSRFSGSGSGTDFTLTISSLQPEDFATYYCLQDYNGWTFGQGTKVDIKR
notes: Full IgG1/kappa made in HEK293 cells; also called parental antibody

fold increase in binding against the parental antibody PG-101 [2]: > 2 fold
B2: PG-101 Variant 1 (antibody, human IgG1, kappa, V domains shown)
VH: B1 VH
VL: B1 VL with N93S
notes: Full IgG1/kappa made in HEK293 cells; also called anti-EMP2 Variant 1; PG-201

binding result [3]: binds
B3: PG-101 Variant 2 (antibody, human IgG1, kappa, V domains shown)
VH: B1 VH
VL: B1 VL with G94L
notes: Full IgG1/kappa made in HEK293 cells
